This test concerns the target RBD重组蛋白 (SARS-CoV-2 S蛋白RBD区, 毕赤酵母GJK0601表达) (SARS-CoV-2).

B1: 人鼠嵌合全抗体mhC3 (antibody, V domains shown)
VH: EVQLVESGGDLVKPGGSLKLSCAASGFTFNTYAMNWVRQTPGKGLEWVARIRSKSNNYATYYADSVKDRFTISRDDSQSMLYLQMNNLKTEDTAMYYCVTPYYGNYADWFTYWGQGTSVTVSS
VL: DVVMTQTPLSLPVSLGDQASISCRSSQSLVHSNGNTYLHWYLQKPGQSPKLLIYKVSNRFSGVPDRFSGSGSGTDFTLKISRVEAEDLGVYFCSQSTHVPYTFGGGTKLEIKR
notes: also called mhC3抗体; C3 (图5、图6)
In general, EC50 refers to the concentration that produces a half-maximal response. On to B1, for which the EC50 was 0.0129 nM.

For the origin of these results see patent CN111995674A (INST MILITARY MEDICINE ACADEMY MILITARY SCIENCES PLA, dated 2020).
